Measurements from paper PMC10874388, “Cyclic peptides discriminate BCL-2 and its clinical mutants from BCL-XL by engaging a single-residue discrepancy” (Nature Communications, 2024).
Starred links: 1 amine or outer side, 2 acyl side, 3 side chain; linkers in the order of their positions; H or OH if unused. Positions of bridges follow the written chain, without caps; N, C: chain ends. Residues, ends and D or L forms follow the SMILES beside them. No end group written: not given here. *: point of attachment. X1 = O=C(C[*:2])NCCNC(=O)c1ccc(C2=N[C@H](C(=O)[*:1])CS2)cc1; FITC = O=C1OC2(c3ccc(O)cc3Oc3cc(O)ccc32)c2ccc(NC(=S)*)cc21; ADT (ClAc-3) = not defined here; c‑ADT = not defined here

Legend:
[1] = biological target: T1, BCL-XL (Homo sapiens, UniProt Q07817, DEL27-81); assay: SPR binding assay, BCL-XL; details: affinity fitting, mean ± SD of three independent experiments, 25 °C
T1 construct: human BCL-XL (residues 1–210, with 27–81 and 210–233 removed); vector-borne tag of pET-22b (Ni-NTA purification implies a His tag); made in house; host or cells: E. coli BL21 (DE3)
Text: (§1) The DNA fragments encoding human BCL-XL ([…], with […] removed), BCL-w (residues 6–152), MCL-1 (residues 152–308) and BFL-1 (residues 1–151) as previously reported[18] were cloned into a pET-22b vector (Invitrogen), respectively. A chimeric human BCL-2 (including residues 1–50 and 92–207) was constructed, by removing the internal long loop (residues 51–91) and replacing its residues 35–50 with residues 33–48 of BCL-XL to solubilize the protein[14], and then it was cloned into a pET28a-Sumo vector (Invitrogen). All BCL-2 mutants (G101V, F104L, Y103D, D111A) were generated by mutagenic PCR, according to the QuikChange (Stratagene) protocol.
(§2) SPR assays were performed using a Biacore T200 instrument in running buffer consisting 10 mM PBS, 50 μM EDTA and 0.05% Tween-20 at 25 °C. Biotinylated proteins were immobilized on a CAP sensor chip (Cytiva, 28920234). […] The binding affinities were quantified by the Biacore evaluation software using 1:1 binding model. The reproducibility of the assays was confirmed by performing replicate determinations.

[2] = biological target: MCL-1 (Homo sapiens, UniProt Q07820); assay: SPR binding assay, MCL-1; details: NB = no binding
Text: as §1, §2

[3] = biological target: T2, BFL-1 (Homo sapiens, UniProt Q16548); assay: SPR binding assay, BFL-1; details: NB = no binding
T2 construct: BFL-1 (residues 1–151); vector-borne tag of pET-22b (Ni-NTA purification implies a His tag); made in house; host or cells: E. coli BL21 (DE3)
T2 sequence (Q16548 1-151): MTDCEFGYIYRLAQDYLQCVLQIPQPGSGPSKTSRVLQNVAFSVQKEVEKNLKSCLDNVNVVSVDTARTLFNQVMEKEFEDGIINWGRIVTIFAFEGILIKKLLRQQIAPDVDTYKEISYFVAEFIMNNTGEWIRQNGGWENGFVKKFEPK
Text: as §1, §2

[4] = biological target: T3, chimeric human BCL-2 (residues 1-50 and 92-207, residues 35-50 replaced with residues 33-48 of BCL-XL) (human, UniProt P10415 1-34; Q07817-1 33-48; P10415 92-207, biotinylated for the SPR assays (sites not given)); assay: SPR; Biacore T200; biotinylated proteins immobilised on a CAP sensor chip, peptides flowed over at 30 uL/min in multiple cycles; 10 mM PBS, 50 uM EDTA, 0.05% Tween-20, 25 °C; 1:1 binding model; details: both partners purified
T3 construct: BCL-2, human, residues 1-34 (residues 35-50 are replaced, see next part); BCL-XL, human, residues 33-48, replacing residues 35-50 of BCL-2; BCL-2, human, residues 92-207 (internal loop 51-91 removed); also called BCL-2 WT; source: E. coli BL21 (DE3), purified (Ni-NTA, Superdex 75, RESOURCE Q, Superdex 200)
T3 chain (looked up): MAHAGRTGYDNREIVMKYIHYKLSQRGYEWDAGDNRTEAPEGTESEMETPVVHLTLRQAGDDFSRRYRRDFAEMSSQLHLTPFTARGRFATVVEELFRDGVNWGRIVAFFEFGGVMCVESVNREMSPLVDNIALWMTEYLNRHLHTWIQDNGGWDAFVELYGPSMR

[5] = biological target: T4, human BCL-XL (residues 1-210, with 27-81 and 210-233 removed) (human, UniProt Q07817-1 1-210, 27-81 removed, biotinylated for the SPR assays (sites not given)); assay: as above; details: both partners purified
T4 construct: BCL-XL, human, residues 1-210 with the loop 27-81 removed; source: E. coli BL21 (DE3), purified (Ni-NTA, Superdex 75, RESOURCE Q, Superdex 200)

[6] = biological target: T3, chimeric human BCL-2 (residues 1-50 and …); assay: fluorescence polarisation; direct binding: 20 nM FITC-labelled peptide, protein from 60 nM to 1000 nM; 1x PBS pH 7.4, room temperature, 10 min; details: both partners purified
[7] = biological target: T4, human BCL-XL (residues 1-210, with …); assay: as above; details: both partners purified

T4 sequence (Q07817 other isoform, or with tags, fused parts or gaps 27-81 removed | 27-81 removed): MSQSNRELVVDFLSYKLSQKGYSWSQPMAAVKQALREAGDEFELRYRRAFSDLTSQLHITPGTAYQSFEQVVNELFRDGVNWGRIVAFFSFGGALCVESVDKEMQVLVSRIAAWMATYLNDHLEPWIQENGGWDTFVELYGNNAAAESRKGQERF
MCL-1, sequence (Q07820 152-308): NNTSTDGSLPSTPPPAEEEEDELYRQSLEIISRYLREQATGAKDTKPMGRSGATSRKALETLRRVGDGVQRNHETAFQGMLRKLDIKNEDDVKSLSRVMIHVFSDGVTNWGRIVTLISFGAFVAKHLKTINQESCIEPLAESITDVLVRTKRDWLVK

`C[C@@H]1NC(=O)[C@@H]2CCCN2C(=O)[C@@H]2CSC(=N2)c2ccc(cc2)C(=O)NCCNC(=O)CSC[C@@H](C(=O)NCC(=O)N[C@@H](CO)C(=O)NCC(=O)N[C@@H](CO)C(=O)N[C@@H](CCCNC(=N)N)C(=O)N[C@@H](CCCCN)C(=O)N[C@@H](CCCCN)C(=O)N[C@@H](CCCNC(=N)N)C(=O)N[C@@H](CCCNC(=N)N)C(=O)N[C@@H](CCC(N)=O)C(=O)N[C@@H](CCCNC(=N)N)C(=O)N[C@@H](CCCNC(=N)N)C(=O)N[C@@H](CCCNC(=N)N)C(=O)N[C@@H](CCC(=O)O)C(=O)N[C@@H](CCC(=O)O)C(=O)N[C@@H](CCC(=O)O)C(=O)N[C@@H](CCC(=O)O)C(=O)N[C@@H](CCC(=O)O)C(=O)N[C@@H](CCC(=O)O)C(=O)N[C@@H](CCC(=O)O)C(=O)N[C@@H](CCC(=O)O)C(N)=O)NC(=O)[C@H](CCC(=O)O)NC(=O)[C@H](Cc2ccc(O)cc2)NC(=O)[C@H](CC(=O)O)NC(=O)[C@H](Cc2c[nH]c3ccccc23)NC(=O)CNC(=O)[C@H](Cc2ccc(O)cc2)NC(=O)[C@H](CCCNC(=N)N)NC1=O` [cp1-TAT-8E] (PARYGWDYECGSGSRKKRRQRRREEEEEEEE-NH2; linker N-10 via X1) was tested, and the Kd [1] was 1170 ± 70 nM.

In the case of `CC[C@H](C)[C@@H]1NC(=O)[C@@H]2CCCN2C(=O)[C@@H]2CSC(=N2)c2ccc(cc2)C(=O)NCCNC(=O)CSC[C@@H](C(N)=O)NC(=O)[C@H](Cc2ccccc2)NC(=O)[C@H](CCC(=O)O)NC(=O)[C@H](CC(=O)O)NC(=O)[C@H](Cc2c[nH]c3ccccc23)NC(=O)[C@H](CCC(=O)O)NC(=O)[C@H](Cc2ccc(O)cc2)NC(=O)[C@H](CCCNC(=N)N)NC1=O` [cp2] (PIRYEWDEFC-NH2; linker N-10 via X1), the Kd [2] is reported as over 12800 nM and the Kd [3] is reported as over 12800 nM.

Work on `CC[C@H](C)[C@@H]1NC(=O)[C@@H]2CCCN2C(=O)[C@@H]2CSC(=N2)c2ccc(cc2)C(=O)NCCNC(=O)CSC[C@@H](C(N)=O)NC(=O)[C@H](CCC(=O)O)NC(=O)[C@H](C(C)C)NC(=O)[C@H](CC(=O)O)NC(=O)[C@H](Cc2c[nH]c3ccccc23)NC(=O)[C@@H]2CCCN2C(=O)[C@H](Cc2ccc(O)cc2)NC(=O)[C@H](CCCNC(=N)N)NC1=O` [cp3] (PIRYPWDVEC-NH2; linker N-10 via X1) yielded a Kd [2] of over 12800 nM and a Kd [3] of over 12800 nM.

In the case of CPIRYEWDEFCGSGSRKKRRQRRREEEEEEEE (linker 1-11 via c‑ADT; reading uncertain, source: synthetic peptide) [cp2-TAT-8E], the Kd [4] is reported as 140 ± 50 nM and the Kd [5] is reported as 130 ± 9 nM.

For CPIRYPWDVECGSGSRKKRRQRRREEEEEEEE (linker 1-11 via c‑ADT; reading uncertain, source: synthetic peptide) [cp3-TAT-8E], the Kd [4] was 70 ± 10 nM and the Kd [5] was 20 ± 1 nM.

B1: cp3-F (peptide)
peptide: CPIRYPWDVECGK(FITC)
modifications: linker 1-11 via ADT (ClAc-3) (inferred); reading uncertain; also: modified by ClAc-3, printed as CPIRYPWDVECG{K(FITC)}
notes: also called cp3-FITC; source: synthetic peptide
Molecule B1 has a Kd [6] of 177 nM and a Kd [7] of 270 nM.

B2: cp2-F (peptide)
peptide: CPIRYEWDEFCGK(FITC)
modifications: linker 1-11 via ADT (ClAc-3) (inferred); reading uncertain; also: modified by ClAc-3, printed as CPIRYEWDEFCG{K(FITC)}
notes: also called cp2-FITC; source: synthetic peptide
In the case of B2, the Kd [6] is reported as 97.2 nM and the Kd [7] is reported as 810 nM.
